The RNAGym collection of RNA variant scans (doi:10.1073/pnas.2313332121)
Variants at the floor of the assay were thinned out.

B1: TPR 5TU (parent)
chain: GGAUCUUCUCGAUCUAACAAAAAAGACAAAUCUGCCACAAAGCUUGAGAGCAUCUUCGGAUGCAGAGGCGGCAGCCUUCGGUGGCGCGAUAGCGCCAACGUUCUCAACUAUGACACGCAAAACGCGUGCUCCGUUGAAUGGAGUUUAUCAUG

Variants of: B1
Assay: polymerase ribozyme fitness, log enrichment relative to wild type (log ratio); higher = more active; in vitro selection for triplet polymerase activity
In short: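 Both subunits of a heterodimeric triplet polymerase ribozyme were given their own mutant library, built by PCR and transcribed. Each library was annealed with a biotinylated primer, the partner subunit and triplets, incubated frozen at −7 °C, and its extended constructs gel-excised, captured on streptavidin beads and amplified by RT-PCR, all in one round done in triplicate. Fitness is the logarithm of genotype enrichment relative to wild-type enrichment, with replicates averaged by inverse-variance weighting. That logarithm is base 2, and Illumina-sequenced genotypes needed ≥10 input reads and ≥1 read per output.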

Variant | polymerase ribozyme fitness (log ratio)
G83A G128A | -3.83
U82G C85A C95U U146A A150U | -1.37
U82G U101G | 0.433
G83U C93U | -2.69
G80A C93U U102A | -3.01
G80A G124A | 0.289
G83A G86U C118U | -3.81
C79U G92U | -1.44
G83A A91U G100U | ≤ -4.2
G80C C87U | ≤ -4.2
G83A C87A | ≤ -4.2
G81C G117A A119C | 0.184
G83U C99G U145G | ≤ -4.2
G83C C125U U146G | -3.89
G80C C103G G124A A147G | ≤ -4.2
U82G G100U G128A | ≤ -4.2
G81A G140C | -2.67
G81A C103A | -1.13
U82C G83A C103U | -0.585
G83U C132U | -1.33
U82G G128U | -3.35
U82A A91G C105U | -2.53
G83U G143U | -1.68
U82C C95G | -2.63

Variant | polymerase ribozyme fitness (log ratio)
U82G G94U | -0.833
G83U C103U | 0.2
G83A A142G U148A | -4.11
G83U G94C C116U | -2.08
G83A A115C A122U U134A | -3.03
G81A C85A | 0.102
G81C C125A G140C | -3.98
G81C G126C U145C | 0.873
G80C G94A | ≤ -4.2
U82C C85U C114A | -3.22
G83C G126A | 0.0538
G83C G126U | 0.246
G81A C118A | -1.82
G81A G86A | -1.56
G80U C103G G152A | ≤ -4.2
U82G C87U U146C | -0.959
U82G C95A A110U A138U | ≤ -4.2
G83U U151A | ≤ -4.2
G83C U109A A115C G140C | ≤ -4.2
G80A G128U | -3.18
U82A G126A | 1.28
G83C G136A | -0.101
G83C G136C | -4.09
G80U C85A | -2.27

Variant | polymerase ribozyme fitness (log ratio)
G81C C93U U101G | 0.439
G81U | -0.702
G81C | -0.471
G81A | -0.305
G80A U146G U148C | -3.91
G81A C85U A91U G124C U134A | ≤ -4.2
G80C C93G A115C U144C | ≤ -4.2
G81C C85G C95G | -3.07
G83A G117C U145G | -1.38
U82G G84A G86U C118G | ≤ -4.2
U82C | -0.0678
U82A | -0.0631
U82G | 0.17
G80U C125A | -1.04
G81A A97U | -0.297
U82C G84A A98U A115U G141A | -2.58
G80A A89G G117U | -1.48
G83A A110C C123G | ≤ -4.2
G81C A98U A107G | ≤ -4.2
U82A C129A | -2.19
G83U U127A | -3.18
G83C C85G C103A | ≤ -4.2
G83U G100U | -3.9
G81C C95A U134A U144C | -2.86

Variant | polymerase ribozyme fitness (log ratio)
G81C G84U G126C | -2.04
G83A U146G | -1.33
G83A G126C | 0.173
G83C C118A A142G | -2.35
G83U G94A | -0.328
G81A A91G C99G A120C | -4
U82G A98G G117A A122U | 0.376
G81A C96U C114G A115U | -3.6
G83A C93U | -1.36
G83C C116A A121C | 0.158
G83A C105A | -3.15
G81C C87A A91U C93U C114G A138C G141C | ≤ -4.2
U82C C114U | -1.99
G81U C95U | -1.63
C79U U90A A106U | ≤ -4.2
G81A G86A U148A | -3.94
U82A U102G U144G | -1.48
G80A G81C C95G U145G | -1.72
G81A C93G | -3.86
G83C G133A | -3.62
U82A A106G C123G U148G | -4.03
G83C G136C U146G | -3.41
G83U C95G G126U | -1.85
U82G C87U G92U A98G | -2.69

Variant | polymerase ribozyme fitness (log ratio)
G81A A89U G112A G133U C149U | ≤ -4.2
G83C C131G | -3.32
G80A G84A A120G | -1.33
G81C C132G | -3.75
U82A C96G | -0.244
U82C G84A G117U | -0.688
G80U U109C G143C | -4.04
G80A C114U A137C | -3.92
G83A A97U | 0.538
G83A A97G | -0.594
U82A A89G C96G G128U | -4.05
U82G C85U A107U | -3.59
G83A G141U | -0.659
U82A U146A | -0.606
G83C U146A | -0.565
G81A C85U C132A | -2.23
G83U G94U C116A C132G G140U | -3.11
G80A A119U | -0.405
G81A U148C | -1.48
G80A G81A A120C | -0.393
G83A C87U C123G A142G | -2.09
G81A A115U A142U | -2.42
U82C U135C U146C | -2.14
G81A C85A G136A | 0.0509

Variant | polymerase ribozyme fitness (log ratio)
G83C C85G A122U | ≤ -4.2
G83C U145C | -2.18
G83C U145G | -0.686
G81U G84A | -1.28
G83U C103G A107U | ≤ -4.2
G80A G141A | -0.333
G83U C95U C123U G143U | -3.65
G80C G92U C96U U135G A150G | ≤ -4.2
G83C U90C A107C C116A U127C A150C | ≤ -4.2
U82C G94U A98G A107C | ≤ -4.2
G80C C95U C118G | ≤ -4.2
U82G C93A | -2.46
G81A G94C A106C A113U C116A G133A | ≤ -4.2
G83C C118G | -0.968
G83C C118U | -1.34
G83C A115U A120U | -1.99
G80A C85U G136A G143C | -1.57
G80C C96U | -3.79
U82A U102G | -2.54
G81U C85A U139G | -0.703
G83U A98C A115G | -1.62
U82G C96A | 0.287
U82G C96U | -2.13
U82G C95G G126C | -1.07

Variant | polymerase ribozyme fitness (log ratio)
U82G G92A | -2.96
G80C C131G | -4.04
G83A A98U | -0.299
U82A G86A A98U U134A | -3.68
G81A C87U G100U A115U C116U | -4.04
G80U G84A G126C C132U U145A | -3.25
U82C C95U C131G A142C | ≤ -4.2
U82C G88C C105U G141A C149U | ≤ -4.2
U82G G86A A120G | -1.53
G83U U146A | -1.19
G83A U101C | -2.23
G83U A97G A142U | -3.29
G83U A142C U145C | -3.76
U82G G92U C131A | -3.24
G81A C87U G100C G133U G141U | ≤ -4.2
G81C G126C | 0.723
G81C C103U U134G | -2.49
G83A C99U G143A A147U | -3.6
G81U C85U A115C G136C | -3.36
G80U U148C | -3.38
G81A C95A A98U | -0.289
G83U C96A | -0.528
U82G C118G | -1.09
